For the assay, the target named is T1, Sec23–Sec24 complex (WT) (yeast (S. cerevisiae), UniProt P15303 1-768; P40482 1-926).
T1 construct: Sec23, COPII inner coat subunit, yeast; Co-expressed and co-purified complex; also called Sec23 and His-Sec24; inner coat; source: Sf9 cells (pFastbac), purified (HisTrap HP, HiTrap Q HP)
Description: liposome flotation (coat recruitment to synthetic liposomes); purified Sar1 (15 µg/ml), Sec23–Sec24 (20 µg/ml), Sec13–Sec31 (30 µg/ml), 0.27 mM major/minor liposomes (0.4 µm), 0.1 mM GMP-PNP, HKM buffer pH 7.0, 30 min at 25°C; liposomes floated through sucrose; bound proteins by SDS-PAGE and SYPRO red. Conditions: both partners purified.

This note sets out measurements from paper PMC7594496, “Combinatorial multivalent interactions drive cooperative assembly of the COPII coat” (The Journal of Cell Biology, 2020).

T1 sequence (P15303 whole entry, chain 1 of 2): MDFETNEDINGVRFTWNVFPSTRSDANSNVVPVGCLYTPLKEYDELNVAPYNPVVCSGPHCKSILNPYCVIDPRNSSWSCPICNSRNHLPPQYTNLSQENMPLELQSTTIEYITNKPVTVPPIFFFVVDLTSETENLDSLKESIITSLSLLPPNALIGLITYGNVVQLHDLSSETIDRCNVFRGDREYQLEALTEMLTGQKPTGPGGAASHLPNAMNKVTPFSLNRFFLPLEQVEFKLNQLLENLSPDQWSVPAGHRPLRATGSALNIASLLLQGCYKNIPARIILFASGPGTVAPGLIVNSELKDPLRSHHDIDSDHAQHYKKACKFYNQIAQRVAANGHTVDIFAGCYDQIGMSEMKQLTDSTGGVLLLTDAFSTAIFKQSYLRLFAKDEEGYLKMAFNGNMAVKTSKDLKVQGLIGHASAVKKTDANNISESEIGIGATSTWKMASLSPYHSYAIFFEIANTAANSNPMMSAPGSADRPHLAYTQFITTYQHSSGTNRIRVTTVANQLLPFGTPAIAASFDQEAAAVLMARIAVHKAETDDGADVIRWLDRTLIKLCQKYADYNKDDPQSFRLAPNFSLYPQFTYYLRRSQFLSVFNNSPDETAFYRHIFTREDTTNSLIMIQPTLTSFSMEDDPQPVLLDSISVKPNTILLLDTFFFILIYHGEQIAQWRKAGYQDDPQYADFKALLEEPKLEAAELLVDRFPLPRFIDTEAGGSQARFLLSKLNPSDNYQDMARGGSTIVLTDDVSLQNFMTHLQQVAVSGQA
T1 sequence (P40482 whole entry, chain 2 of 2): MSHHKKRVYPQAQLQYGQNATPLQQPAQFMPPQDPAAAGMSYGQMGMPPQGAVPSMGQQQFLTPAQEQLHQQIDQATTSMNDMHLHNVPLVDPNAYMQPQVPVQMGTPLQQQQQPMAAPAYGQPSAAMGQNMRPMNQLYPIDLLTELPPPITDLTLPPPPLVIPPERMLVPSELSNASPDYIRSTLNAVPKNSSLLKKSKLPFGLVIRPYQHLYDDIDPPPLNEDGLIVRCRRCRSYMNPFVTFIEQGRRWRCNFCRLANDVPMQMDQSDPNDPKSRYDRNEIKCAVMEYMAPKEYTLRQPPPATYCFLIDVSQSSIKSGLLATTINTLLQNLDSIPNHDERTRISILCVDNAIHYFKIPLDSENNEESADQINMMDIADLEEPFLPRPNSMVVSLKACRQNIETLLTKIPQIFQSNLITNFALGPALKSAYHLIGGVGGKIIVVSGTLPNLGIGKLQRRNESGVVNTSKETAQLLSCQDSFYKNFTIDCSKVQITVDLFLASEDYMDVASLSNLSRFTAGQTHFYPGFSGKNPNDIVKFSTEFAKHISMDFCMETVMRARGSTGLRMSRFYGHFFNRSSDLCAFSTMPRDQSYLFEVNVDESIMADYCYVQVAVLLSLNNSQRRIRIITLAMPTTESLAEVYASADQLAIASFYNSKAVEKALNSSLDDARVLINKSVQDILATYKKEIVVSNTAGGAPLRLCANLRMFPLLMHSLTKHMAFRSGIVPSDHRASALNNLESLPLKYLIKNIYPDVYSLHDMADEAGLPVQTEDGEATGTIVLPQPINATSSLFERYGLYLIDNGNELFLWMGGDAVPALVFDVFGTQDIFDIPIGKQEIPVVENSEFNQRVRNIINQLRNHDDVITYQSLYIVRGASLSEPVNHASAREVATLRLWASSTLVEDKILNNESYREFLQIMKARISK

B1: Sec13–Sec31 complex (WT) (complex, yeast (S. cerevisiae) | S. cerevisiae)
chain 1: MVVIANAHNELIHDAVLDYYGKRLATCSSDKTIKIFEVEGETHKLIDTLTGHEGPVWRVDWAHPKFGTILASCSYDGKVLIWKEENGRWSQIAVHAVHSASVNSVQWAPHEYGPLLLVASSDGKVSVVEFKENGTTSPIIIDAHAIGVNSASWAPATIEEDGEHNGTKESRKFVTGGADNLVKIWKYNSDAQTYVLESTLEGHSDWVRDVAWSPTVLLRSYLASVSQDRTCIIWTQDNEQGPWKKTLLKEEKFPDVLWRASWSLSGNVLALSGGDNKVTLWKENLEGKWEPAGEVHQ
chain 2: MVKLAEFSRTATFAWSHDKIPLLVSGTVSGTVDANFSTDSSLELWSLLAADSEKPIASLQVDSKFNDLDWSHNNKIIAGALDNGSLELYSTNEANNAINSMARFSNHSSSVKTVKFNAKQDNVLASGGNNGEIFIWDMNKCTESPSNYTPLTPGQSMSSVDEVISLAWNQSLAHVFASAGSSNFASIWDLKAKKEVIHLSYTSPNSGIKQQLSVVEWHPKNSTRVATATGSDNDPSILIWDLRNANTPLQTLNQGHQKGILSLDWCHQDEHLLLSSGRDNTVLLWNPESAEQLSQFPARGNWCFKTKFAPEAPDLFACASFDNKIEVQTLQNLTNTLDEQETETKQQESETDFWNNVSREESKEKPTVFHLQAPTWYGEPSPAAHWAFGGKLVQITPDGKGVSITNPKISGLESNTTLSEALKTKDFKPLINQRLVKVIDDVNEEDWNLLEKLSMDGTEEFLKEALAFDNDESDAQDDANNEKEDDGEEFFQQIETNFQPEGDFSLSGNIEQTISKNLVSGNIKSAVKNSLENDLLMEAMVIALDSNNERLKESVKNAYFAKYGSKSSLSRILYSISKREVDDLVENLDVSQWKFISKAIQNLYPNDIAQRNEMLIKLGDRLKENGHRQDSLTLYLAAGSLDKVASIWLSEFPDLEDKLKKDNKTIYEAHSECLTEFIERFTVFSNFINGSSTINNEQLIAKFLEFINLTTSTGNFELATEFLNSLPSDNEEVKTEKARVLIASGKSLPAQNPATATTSKAKYTNAKTNKNVPVLPTPGMPSTTSIPSMQAPFYGMTPGASANALPPKPYVPATTTSAPVHTEGKYAPPSQPSMASPFVNKTNSSTRLNSFAPPPNPYATATVPATNVSTTSIPQNTFAPIQPGMPIMGDYNAQSSSIPSQPPINAVSGQTPHLNRKANDGWNDLPLKVKEKPSRAKAVSVAPPNILSTPTPLNGIPANAASTMPPPPLSRAPSSVSMVSPPPLHKNSRVPSLVATSESPRASISNPYAPPQSSQQFPIGTISTANQTSNTAQVASSNPYAPPPQQRVATPLSGGVPPAPLPKASNPYAPTATTQPNGSSYPPTGPYTNNHTMTSPPPVFNKPPTGPPPISMKKRSNKLASIEQNPSQGATYPPTLSSSASPLQPSQPPTLASQVNTSAENVSHEIPADQQPIVDFLKEELARVTPLTPKEYSKQLKDCDKRLKILFYHLEKQDLLTQPTIDCLHDLVALMKEKKYKEAMVIHANIATNHAQEGGNWLTGVKRLIGIAEATLN
notes: Sec13, COPII outer coat subunit, yeast; Sec31, COPII outer coat subunit, S. cerevisiae; disordered proline-rich region defined as residues 764-1,174; also called outer coat; WT Sec31; source: Sf9 cells (pFastbac), purified (HisTrap HP, TEV cleavage of the 6xHis tag on Sec31, HiTrap Q HP); not shown: His6, N-terminal, cleaved
Consider B1, for which the binding result is reported as “binds”.
